The numbers were not newly measured in patent US20260201061A1, “COMBINATION FOR TREATMENT AND PREVENTION OF CANCER” (Hummingbird Bioscience Pte. Ltd., priority 2022, published 2026), which cites them from elsewhere.

B1: seribantumab: anti-HER3 antibody (antibody, chains of the INN, looked up)
heavy: EVQLLESGGGLVQPGGSLRLSCAASGFTFSHYVMAWVRQAPGKGLEWVSSISSSGGWTLYADSVKGRFTISRDNSKNTLYLQMNSLRAEDTAVYYCTRGLKMATIFDYWGQGTLVTVSSASTKGPSVFPLAPCSRSTSESTAALGCLVKDYFPEPVTVSWNSGALTSGVHTFPAVLQSSGLYSLSSVVTVPSSNFGTQTYTCNVDHKPSNTKVDKTVERKCCVECPPCPAPPVAGPSVFLFPPKPKDTLMISRTPEVTCVVVDVSHEDPEVQFNWYVDGVEVHNAKTKPREEQFNSTFRVVSVLTVVHQDWLNGKEYKCKVSNKGLPAPIEKTISKTKGQPREPQVYTLPPSREEMTKNQVSLTCLVKGFYPSDIAVEWESNGQPENNYKTTPPMLDSDGSFFLYSKLTVDKSRWQQGNVFSCSVMHEALHNHYTQKSLSLSPG
light: QSALTQPASVSGSPGQSITISCTGTSSDVGSYNVVSWYQQHPGKAPKLIIYEVSQRPSGVSNRFSGSKSGNTASLTISGLQTEDEADYYCCSYAGSSIFVIFGGGTKVTVLGQPKAAPSVTLFPPSSEELQANKATLVCLVSDFYPGAVTVAWKADGSPVKVGVETTKPSKQSNNKYAASSYLSLTPEQWKSHRSYSCRVTHEGSTVEKTVAPAECS
B2: ISU104: anti-HER3 antibody, mainly binds to domain III of HER3 (antibody, chains of the INN, looked up, V domains shown)
VH: EVQLLESGGGLVQPGGSLRLSCAASGFTFSDYDMSWVRQAPGKGLEWVSTIDLDSGSIYYADSVQGRFTISRDNSKNTLYLQMNSLRAEDTAVYYCAKDLHMGPEGPFDYWGQGTLVTVSS
VL: QSVLTQPPSASGTPGQRVTISCSGSSSNIGSNSVSWYQQLPGTAPKLLIYSDNHRPSGVPDRFSGSKSGTSASLAISGLRSEDEADYYCQGWDTSLSGHVFGGGTKLTVL

The data set has as its target HER3 (Homo sapiens, UniProt P21860).
In the case of “Patritumab: anti-HER3 antibody [reference compound]”, the “inhibition of binding of heregulin (HRG)/ligand to HER3” value (from here on “inhibition of binding of heregulin”) is “inhibit HER3-mediated signaling by blocking binding of heregulin (HRG) to HER3”.
As for B1, the “inhibition of binding of heregulin” value was “inhibit HER3-mediated signaling by blocking binding of heregulin (HRG) to HER3”.
Regarding B2, the “inhibition of binding of heregulin” value is listed as “dose-dependent inhibition of binding of HRG to HER3”.
